Assays:
rat anti hIL-10 mAb 12G8 = experiment: competitive ECLA (IGEN): unlabeled IL-10 titrated against hIL-10-biotin for binding to rat 12G8
[1] = molecular target: T1, recombinant hIL-10Ra: FLAG-tagged protein (human) (UniProt Q13651); experiment: competitive ECLA (IGEN): unlabeled IL-10 titrated against hIL-10-biotin for binding to FLAG-tagged hIL-10Ra
T1 sequence: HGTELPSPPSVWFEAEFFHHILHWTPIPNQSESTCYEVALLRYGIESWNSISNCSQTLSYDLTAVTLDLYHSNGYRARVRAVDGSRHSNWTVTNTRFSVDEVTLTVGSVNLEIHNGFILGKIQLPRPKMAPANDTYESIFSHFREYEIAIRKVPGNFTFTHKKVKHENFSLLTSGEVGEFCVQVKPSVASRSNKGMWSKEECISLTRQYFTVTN

Chain of recombinant cyno IL-10 (P79338 19-178 limits assumed): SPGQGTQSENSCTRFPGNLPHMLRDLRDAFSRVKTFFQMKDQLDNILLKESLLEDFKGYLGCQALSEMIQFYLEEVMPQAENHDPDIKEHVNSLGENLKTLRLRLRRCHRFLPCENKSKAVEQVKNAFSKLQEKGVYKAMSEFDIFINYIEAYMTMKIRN

Row | Substance | IC50 (rat anti hIL-10 mAb 12G8) [nM] | IC50 [1] [nM]
1 | recombinant cyno IL-10 (from UniProt P79338) (ligand) | 6.6 | 17.6
2 | recombinant human IL-10 (from UniProt P22301) (ligand) | 4.7 | 2.9
3 | recombinant human IL-10-monomer (from UniProt P22301) (ligand) | 7.1 | 7.2
